The values that follow come from the supplement of paper PMC10567573.

B1: ESRRG (parent)
chain: YSCPATNECEITKRRRKSCQACRF
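Further: lentivirally expressed fusions sorted by FACS into six bins by GFP to DsRed ratio, PSI derived from sequencing read proportions per bin multiplied by bin number.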

This series covers variants of B1. Briefly: protein stability index of a GFP-peptide fusion (GPS, HEK-293T) (PSI 1-6); higher = more stable. As to conditions: c terminus: a fixed tail appended.
As to YSCPATNECEITKRRRKSSQACRF [C19S], the protein stability index is 3.54.
YSCPATNECEITKRRRKSTQACRF [C19T]: the protein stability index is 3.85.
The value for YSCPATNECEITKRRRKSRQACRF [C19R] was 3.72; that for YSCPATNECEITKRRRKSYQACRF [C19Y] was 3.44; that for YSCPATNECEITKRRRKSWQACRF [C19W] was 3.15.
The value for YSCPATNECEITKRRRKSVQACRF [C19V] was 3.27; that for YSCPATNECEITKRRRKSCEACRF [Q20E] was 3.62.
For YSCPATNECEITKRRRKSCKACRF [Q20K], the protein stability index is 3.92.
The same measure for YSCPATNECEITKRRRKSCRACRF [Q20R]: 3.49.
The value for YSCPATNECEITKRRRKSCIACRF [Q20I] was 2.2; that for YSCPATNECEITKRRRKSCHACRF [Q20H] was 2.67.
The same measure for YSCPATNECEITKRRRKSCTACRF [Q20T]: 2.93; for YSCPATNECEITKRRRKSCMACRF [Q20M]: 2.86; for YSCPATNECEITKRRRKSCWACRF [Q20W]: 2.21.
Take YSCPATNECEITKRRRKSCAACRF [Q20A]: the protein stability index was 3.52.
The same measure for YSCPATNECEITKRRRKSCNACRF [Q20N]: 3.52; for YSCPATNECEITKRRRKSCCACRF [Q20C]: 2.67.
Take YSCPATNECEITKRRRKSCSACRF [Q20S]: the protein stability index stood at 3.02.
Take YSCPATNECEITKRRRKSCYACRF [Q20Y]: the protein stability index stood at 2.81.
In the case of YSCPATNECEITKRRRKSCLACRF [Q20L], the protein stability index is 2.53.
The value for YSCPATNECEITKRRRKSCGACRF [Q20G] was 3.53.
Turning to YSCPATNECEITKRRRKSCDACRF [Q20D], the protein stability index worked out at 3.7.
The value for YSCPATNECEITKRRRKSCFACRF [Q20F] was 1.91; that for YSCPATNECEITKRRRKSCVACRF [Q20V] was 2.78.
The value for YSCPATNECEITKRRRKSCPACRF [Q20P] was 3.39; that for YSCPATNECEITKRRRKSCQACPF [R23P] was 3.7.
The same measure for YSCPATNECEITKRRRKSCQACEF [R23E]: 4.02; for YSCPATNECEITKRRRKSCQACKF [R23K]: 3.33.
As to YSCPATNECEITKRRRKSCQACVF [R23V], the protein stability index was determined as 2.46.
As for YSCPATNECEITKRRRKSCQACYF [R23Y], the protein stability index turned out to be 3.3.
The same measure for YSCPATNECEITKRRRKSCQACTF [R23T]: 3.01.
YSCPATNECEITKRRRKSCQACGF [R23G]: the protein stability index worked out at 3.79.
The same measure for YSCPATNECEITKRRRKSCQACNF [R23N]: 3.92; for YSCPATNECEITKRRRKSCQACMF [R23M]: 3.04; for YSCPATNECEITKRRRKSCQACWF [R23W]: 2.09.
The value for YSCPATNECEITKRRRKSCQACFF [R23F] was 2.33.
The value for YSCPATNECEITKRRRKSCQACSF [R23S] was 3.22; that for YSCPATNECEITKRRRKSCQACLF [R23L] was 2.73.
For the variant YSCPATNECEITKRRRKSCQACDF [R23D], the protein stability index turned out to be 3.88.
The value for YSCPATNECEITKRRRKSCQACIF [R23I] was 2.59; that for YSCPATNECEITKRRRKSCQACCF [R23C] was 3.71.
The value for YSCPATNECEITKRRRKSCQACQF [R23Q] was 3.69.
Consider YSCPATNECEITKRRRKSCQACHF [R23H], for which the protein stability index was 2.96.
The value for YSCPATNECEITKRRRKSCQACAF [R23A] was 3.1; that for YSCPATNECEITKRRRKSCQSCRF [A21S] was 3.23; that for YSCPATNECEITKRRRKSCQRCRF [A21R] was 3.49.
The same measure for YSCPATNECEITKRRRKSCQMCRF [A21M]: 2.46; for YSCPATNECEITKRRRKSCQTCRF [A21T]: 3.47; for YSCPATNECEITKRRRKSCQYCRF [A21Y]: 3.16.
The value for YSCPATNECEITKRRRKSCQGCRF [A21G] was 3.44; that for YSCPATNECEITKRRRKSCQLCRF [A21L] was 2.31.
Consider YSCPATNECEITKRRRKSCQDCRF [A21D], for which the protein stability index worked out at 3.49.
The value for YSCPATNECEITKRRRKSCQPCRF [A21P] was 3.29; that for YSCPATNECEITKRRRKSCQICRF [A21I] was 2.54.
The same measure for YSCPATNECEITKRRRKSCQKCRF [A21K]: 3.63.
The value for YSCPATNECEITKRRRKSCQVCRF [A21V] was 3.2.
Turning to YSCPATNECEITKRRRKSCQQCRF [A21Q], the protein stability index was 3.29.
The same measure for YSCPATNECEITKRRRKSCQECRF [A21E]: 3.43; for YSCPATNECEITKRRRKSCQWCRF [A21W]: 2.55.
On to YSCPATNECEITKRRRKSCQFCRF [A21F], for which the protein stability index came to 2.94.
The value for YSCPATNECEITKRRRKSCQCCRF [A21C] was 3.66; that for YSCPATNECEITKRRRKSCQHCRF [A21H] was 4.06; that for YSCPATNECEITKRRRKSCQNCRF [A21N] was 3.41.
The value for YSCPATNECEITKRRRKSCQACRM [F24M] was 3.89; that for YSCPATNECEITKRRRKSCQACRT [F24T] was 4.12.
The value for YSCPATNECEITKRRRKSCQACRY [F24Y] was 3.53; that for YSCPATNECEITKRRRKSCQACRS [F24S] was 3.89.
For YSCPATNECEITKRRRKSCQACRN [F24N], the protein stability index is 4.28.
The same measure for YSCPATNECEITKRRRKSCQACRI [F24I]: 3.67; for YSCPATNECEITKRRRKSCQACRH [F24H]: 4.18.
The same measure for YSCPATNECEITKRRRKSCQACRG [F24G]: 4.18; for YSCPATNECEITKRRRKSCQACRV [F24V]: 4; for YSCPATNECEITKRRRKSCQACRR [F24R]: 3.41.
The value for YSCPATNECEITKRRRKSCQACRW [F24W] was 2.88; that for YSCPATNECEITKRRRKSCQACRK [F24K] was 4.41.
In the case of YSCPATNECEITKRRRKSCQACRL [F24L], the protein stability index came to 3.61.
In the case of YSCPATNECEITKRRRKSCQACRD [F24D], the protein stability index turned out to be 4.07.
The value for YSCPATNECEITKRRRKSCQACRC [F24C] was 3.62.
The value for YSCPATNECEITKRRRKSCQACRP [F24P] was 3.51.
The value for YSCPATNECEITKRRRKSCQACRQ [F24Q] was 3.7; that for YSCPATNECEITKRRRKSCQACRA [F24A] was 4.
YSCPATNECEITKRRRKSCQACRE [F24E]: the protein stability index is 4.19.
In the case of YSCPATNECEITKRRRKSCQADRF [C22D], the protein stability index was found to be 4.07.
The value for YSCPATNECEITKRRRKSCQAFRF [C22F] was 2.81.
The value for YSCPATNECEITKRRRKSCQAMRF [C22M] was 2.9.
On to YSCPATNECEITKRRRKSCQAVRF [C22V], for which the protein stability index stood at 3.66.
The same measure for YSCPATNECEITKRRRKSCQAERF [C22E]: 3.49; for YSCPATNECEITKRRRKSCQAWRF [C22W]: 2.94; for YSCPATNECEITKRRRKSCQAPRF [C22P]: 3.86.
For YSCPATNECEITKRRRKSCQALRF [C22L], the protein stability index is 3.71.
The same measure for YSCPATNECEITKRRRKSCQATRF [C22T]: 3.58.
The value for YSCPATNECEITKRRRKSCQAHRF [C22H] was 3.5.
For the variant YSCPATNECEITKRRRKSCQARRF [C22R], the protein stability index was 3.87.
As for YSCPATNECEITKRRRKSCQAARF [C22A], the protein stability index stood at 3.47.
The value for YSCPATNECEITKRRRKSCQAQRF [C22Q] was 3.67; that for YSCPATNECEITKRRRKSCQAGRF [C22G] was 3.38; that for YSCPATNECEITKRRRKSCQAKRF [C22K] was 3.97.
Take YSCPATNECEITKRRRKSCQANRF [C22N]: the protein stability index stood at 4.09.
Consider YSCPATNECEITKRRRKSCQASRF [C22S], for which the protein stability index turned out to be 3.9.
The same measure for YSCPATNECEITKRRRKSCQAYRF [C22Y]: 3.01; for YSCPATNECEITKRRRKSCQAIRF [C22I]: 3.42.
